Results reported in US6897054.
Each block holds one binder with its values, some of them ahead of it.

Assays:
[1] = molecular target: huCdc7 fused to DNA-binding domain of Gal4 (human); test: yeast two-hybrid assay, lacZ activity
myc-tagged H37 protein = molecular target: T1, myc-tagged H37 protein
T1 chain: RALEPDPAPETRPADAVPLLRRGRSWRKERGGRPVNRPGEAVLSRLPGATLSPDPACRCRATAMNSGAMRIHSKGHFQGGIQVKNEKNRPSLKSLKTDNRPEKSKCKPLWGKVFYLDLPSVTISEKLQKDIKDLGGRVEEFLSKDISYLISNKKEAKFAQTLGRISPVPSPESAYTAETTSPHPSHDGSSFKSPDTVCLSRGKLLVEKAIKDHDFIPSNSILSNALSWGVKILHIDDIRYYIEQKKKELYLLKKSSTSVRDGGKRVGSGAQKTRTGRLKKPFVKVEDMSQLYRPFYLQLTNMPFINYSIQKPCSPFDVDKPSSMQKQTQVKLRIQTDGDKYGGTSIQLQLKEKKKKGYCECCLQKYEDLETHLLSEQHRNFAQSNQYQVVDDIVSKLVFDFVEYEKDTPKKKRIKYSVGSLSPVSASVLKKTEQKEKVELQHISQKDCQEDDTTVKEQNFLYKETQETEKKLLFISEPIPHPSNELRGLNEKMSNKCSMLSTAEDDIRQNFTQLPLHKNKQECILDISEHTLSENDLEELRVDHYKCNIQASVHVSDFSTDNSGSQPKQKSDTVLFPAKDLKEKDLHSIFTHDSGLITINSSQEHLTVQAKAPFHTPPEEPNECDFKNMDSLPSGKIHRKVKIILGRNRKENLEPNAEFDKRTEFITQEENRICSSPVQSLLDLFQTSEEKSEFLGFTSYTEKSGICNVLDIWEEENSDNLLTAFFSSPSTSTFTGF

binding ability with huCdc7 relative to full-length H37 [1]: 60%
B1: H37 deletion derivative ΔC fused to Gal4 activation domain (protein, not shown: large carriers)
chain: MNSGAMRIHSKGHFQGGIQVKNEKNRPSLKSLKTDNRPEKSKCKPLWGKVFYLDLPSVTISEKLQKDIKDLGGRVEEFLSKDISYLISNKKEAKFAQTLGRISPVPSPESAYTAETTSPHPSHDGSSFKSPDTVCLSRGKLLVEKAIKDHDFIPSNSILSNALSWGVKILHIDDIRYYIEQKKKELYLLKKSSTSVRDGGKRVGSGAQKTRTGRLKKPFVKVEDMSQLYRPFYLQLTNMPFINYSIQKPCSPFDVDKPSSMQKQTQVKLRIQTDGDKYGGTSIQLQLKEKKKKGYCECCLQKYEDLETHLLSEQHRNFAQSNQYQVVDDIVSKLVFDFVEYEKDTPKKKRIKYSVGSLSPVSASVLKKTEQKEKVELQHISQKDCQEDDTTVKEQNFLYKETQETEKKLLFISEPIPHPSNELRGLNEKMSNKCSMLSTAEDDIRQNFTQLPLHKNKQECILDISEHTLSENDLEELRVDHYKCNIQASVHVSDFSTDNSGSQPKQKSDTVLFPAKDLKEKDLHSIFTHDSGLITINSSQEHLTVQAKAPFHTPPEEPNECDFKNMDSLPSGKIHRKVKIILGRNRKENLEPNAEFDKRTEFITQEENRICSSPVQSLLDLFQTSEEKSEFLGFTSYTEKSGICNVLDIWEEEN

B2: huCdc7 (protein)
chain: MEASLGIQMDEPMAFSPQRDRFQAEGSLKKNEQNFKLAGVKKDIEKLYEAVPQLSNVFKIEDKIGEGTFSSVYLATAQLQVGPEEKIALKHLIPTSHPIRIAAELQCLTVAGGQDNVMGVKYCFRKNDHVVIAMPYLEHESFLDILNSLSFQEVREYMLNLFKALKRIHQFGIVHRDVKPSNFLYNRRLKKYALVDFGLAQGTHDTKIELLKFVQSEAQQERCSQNKSHIITGNKIPLSGPVPKELDQQSTTKASVKRPYTNAQIQIKQGKDGKEGSVGLSVQRSVFGERNFNIHSSISHESPAVKLMKQSKTVDVLSRKLATKKKAISTKVMNSAVMRKTASSCPASLTCDCYATDKVCSICLSRRQQVAPRAGTPGFRAPEVLTKCPNQTTAIDMWSAGVIFLSLLSGRYPFYKASDDLTALAQIMTIRGSRETIQAAKTFGKSILCSKEVPAQDLRKLCERLRGMDSSTPKLTSDIQGHASHQPAISEKTDHKASCLVQTPPGQYSGNSFKKGDSNSCEHCFDEYNTNLEGWNEVPDEAYDLLDKLLDLNPASRITAEEALLHPFFKDMSL
in vitro kinase reaction of huCdc7/H37 immunoprecipitates with GST-MCM3 fusion protein as substrate (myc-tagged H37 protein): phosphorylation in a good efficiency was observed for the MCM3 protein in both immunoprecipitate of anti-huCdc7 antibody and immunoprecipitate of anti-myc antibody
